Data on five molecules can be found in patent US20140137294A1, “GLUCOSINOLATE TRANSPORTER PROTEIN AND USES THEREOF” (UNIVERSITY OF COPENHAGEN, priority 2010, published 2014).

For this assay, the system named is Xenopus oocytes. Kind of assay: 4-MTB uptake in Xenopus oocytes expressing wildtype or mutant BrGTR2-A2 proteins. Format: cell-based. The settings on record: 0.5 mM 4-MTB for one hour.

B1: BrGTR2-A2: Brassica rapa GTR2-A2 protein, SEQ ID NO: 66 (protein, listed as Brassica rapa)
chain: MERKPLEVESTDHQKPSSAVYDGSATAVDSVEEEVQETKLVYRGWKVMPFIIGNETFEKLGIIGTLSNLLVYLTAVFNMKSITAATIINAFSGTINFGTFVAAFLCDTYFGRYKTLTVAVIACFLGSLVILLTAAVPQLHPAPCGIALTCTGPSGGQIAFLLMGLAFLVVGAGGIRPCNLAFGADQFNPKSESGKRGIDSFFNWYFFTFTFAQILSLTLVVYIQSNVSWTIGLTIPVVLMFLACVIFFAGDKLYVKIKASGSPLASIAQVITVAIKKRGLKAVKQPWVNLYNYYPLNYANSKLKYTDQFRFLDKAAILAPEDKLEADGKPTDPWKLCTMQQVEEVKCIVRVLPIWFASSIYYLTITQQMTYPVFQALQSDRRLGSGGFVIPAATYVVFLMTGMTVFIIIYDRVLVPTLRRITGIDTGITLLQRIGTGIFFAFLSLVVSGFVEERRRTFALTKPTLGMAPRKGEISSMSAMWLIPQLTLAGVAEAFGAIGQMEFYYKQFPENMRSFAGSIFYVGGGVSSYLGSFLIATVHRTTQNSAGGNWLAEDLNKGRLDLFYFMIAGILAVNFAYFLVMSRWYRYKGSDDEVTAYETNGDVIKQQDKNKV
Consider B1, for which, for the setting “pH 5, non-injected oocytes no detectable uptake”, the 4-MTB imported entry is recorded as “about 2.5 nmol 4-MTB per hour per oocyte”.

B2: BrGTR2 (G126R): BrGTR2-A2 protein with Gly to Arg at position 126 of SEQ ID NO: 66 (protein, listed as Brassica rapa)
chain: MERKPLEVESTDHQKPSSAVYDGSATAVDSVEEEVQETKLVYRGWKVMPFIIGNETFEKLGIIGTLSNLLVYLTAVFNMKSITAATIINAFSGTINFGTFVAAFLCDTYFGRYKTLTVAVIACFLRSLVILLTAAVPQLHPAPCGIALTCTGPSGGQIAFLLMGLAFLVVGAGGIRPCNLAFGADQFNPKSESGKRGIDSFFNWYFFTFTFAQILSLTLVVYIQSNVSWTIGLTIPVVLMFLACVIFFAGDKLYVKIKASGSPLASIAQVITVAIKKRGLKAVKQPWVNLYNYYPLNYANSKLKYTDQFRFLDKAAILAPEDKLEADGKPTDPWKLCTMQQVEEVKCIVRVLPIWFASSIYYLTITQQMTYPVFQALQSDRRLGSGGFVIPAATYVVFLMTGMTVFIIIYDRVLVPTLRRITGIDTGITLLQRIGTGIFFAFLSLVVSGFVEERRRTFALTKPTLGMAPRKGEISSMSAMWLIPQLTLAGVAEAFGAIGQMEFYYKQFPENMRSFAGSIFYVGGGVSSYLGSFLIATVHRTTQNSAGGNWLAEDLNKGRLDLFYFMIAGILAVNFAYFLVMSRWYRYKGSDDEVTAYETNGDVIKQQDKNKV
In the case of B2, the “4-MTB uptake activity of mutant BrGTR2-A2 protein versus wildtype” value is on record as “almost no uptake activity”.

B3: BrGTR2 (S359F): BrGTR2-A2 protein with Ser to Phe at position 359 of SEQ ID NO: 66 (protein, listed as Brassica rapa)
chain: MERKPLEVESTDHQKPSSAVYDGSATAVDSVEEEVQETKLVYRGWKVMPFIIGNETFEKLGIIGTLSNLLVYLTAVFNMKSITAATIINAFSGTINFGTFVAAFLCDTYFGRYKTLTVAVIACFLGSLVILLTAAVPQLHPAPCGIALTCTGPSGGQIAFLLMGLAFLVVGAGGIRPCNLAFGADQFNPKSESGKRGIDSFFNWYFFTFTFAQILSLTLVVYIQSNVSWTIGLTIPVVLMFLACVIFFAGDKLYVKIKASGSPLASIAQVITVAIKKRGLKAVKQPWVNLYNYYPLNYANSKLKYTDQFRFLDKAAILAPEDKLEADGKPTDPWKLCTMQQVEEVKCIVRVLPIWFASFIYYLTITQQMTYPVFQALQSDRRLGSGGFVIPAATYVVFLMTGMTVFIIIYDRVLVPTLRRITGIDTGITLLQRIGTGIFFAFLSLVVSGFVEERRRTFALTKPTLGMAPRKGEISSMSAMWLIPQLTLAGVAEAFGAIGQMEFYYKQFPENMRSFAGSIFYVGGGVSSYLGSFLIATVHRTTQNSAGGNWLAEDLNKGRLDLFYFMIAGILAVNFAYFLVMSRWYRYKGSDDEVTAYETNGDVIKQQDKNKV
Regarding B3, the “4-MTB uptake activity of mutant BrGTR2-A2 protein versus wildtype” value was “increased uptake activity”.

B4: BrGTR2 (E192K): BrGTR2-A2 protein with Glu to Lys at position 192 of SEQ ID NO: 66 (protein, listed as Brassica rapa)
chain: MERKPLEVESTDHQKPSSAVYDGSATAVDSVEEEVQETKLVYRGWKVMPFIIGNETFEKLGIIGTLSNLLVYLTAVFNMKSITAATIINAFSGTINFGTFVAAFLCDTYFGRYKTLTVAVIACFLGSLVILLTAAVPQLHPAPCGIALTCTGPSGGQIAFLLMGLAFLVVGAGGIRPCNLAFGADQFNPKSKSGKRGIDSFFNWYFFTFTFAQILSLTLVVYIQSNVSWTIGLTIPVVLMFLACVIFFAGDKLYVKIKASGSPLASIAQVITVAIKKRGLKAVKQPWVNLYNYYPLNYANSKLKYTDQFRFLDKAAILAPEDKLEADGKPTDPWKLCTMQQVEEVKCIVRVLPIWFASSIYYLTITQQMTYPVFQALQSDRRLGSGGFVIPAATYVVFLMTGMTVFIIIYDRVLVPTLRRITGIDTGITLLQRIGTGIFFAFLSLVVSGFVEERRRTFALTKPTLGMAPRKGEISSMSAMWLIPQLTLAGVAEAFGAIGQMEFYYKQFPENMRSFAGSIFYVGGGVSSYLGSFLIATVHRTTQNSAGGNWLAEDLNKGRLDLFYFMIAGILAVNFAYFLVMSRWYRYKGSDDEVTAYETNGDVIKQQDKNKV
Regarding B4, the “4-MTB uptake activity of mutant BrGTR2-A2 protein versus wildtype” value is “reduction in glucosinolate uptake”.

B5: BrGTR2 (G145R): BrGTR2-A2 protein with Gly to Arg at position 145 of SEQ ID NO: 66 (protein, listed as Brassica rapa)
chain: MERKPLEVESTDHQKPSSAVYDGSATAVDSVEEEVQETKLVYRGWKVMPFIIGNETFEKLGIIGTLSNLLVYLTAVFNMKSITAATIINAFSGTINFGTFVAAFLCDTYFGRYKTLTVAVIACFLGSLVILLTAAVPQLHPAPCRIALTCTGPSGGQIAFLLMGLAFLVVGAGGIRPCNLAFGADQFNPKSESGKRGIDSFFNWYFFTFTFAQILSLTLVVYIQSNVSWTIGLTIPVVLMFLACVIFFAGDKLYVKIKASGSPLASIAQVITVAIKKRGLKAVKQPWVNLYNYYPLNYANSKLKYTDQFRFLDKAAILAPEDKLEADGKPTDPWKLCTMQQVEEVKCIVRVLPIWFASSIYYLTITQQMTYPVFQALQSDRRLGSGGFVIPAATYVVFLMTGMTVFIIIYDRVLVPTLRRITGIDTGITLLQRIGTGIFFAFLSLVVSGFVEERRRTFALTKPTLGMAPRKGEISSMSAMWLIPQLTLAGVAEAFGAIGQMEFYYKQFPENMRSFAGSIFYVGGGVSSYLGSFLIATVHRTTQNSAGGNWLAEDLNKGRLDLFYFMIAGILAVNFAYFLVMSRWYRYKGSDDEVTAYETNGDVIKQQDKNKV
With B5, the “4-MTB uptake activity of mutant BrGTR2-A2 protein versus wildtype” value is reported as “no significant change in uptake of 4-MTB”.
